# From publication PMC3656048, “SAP97 Controls the Trafficking and Resensitization of the Beta-1-Adrenergic Receptor through Its PDZ2 and I3 Domains” (PLoS ONE, 2013)
# T1: GST-PDZ2 of SAP97 (rat)
# T1 chain: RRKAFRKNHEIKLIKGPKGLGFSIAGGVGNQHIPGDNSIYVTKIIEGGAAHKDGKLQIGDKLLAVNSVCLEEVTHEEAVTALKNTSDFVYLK
# B1: full length WT FLAG ß1-AR (receptor)
# chain: not shown
# notes: human ß1-adrenergic receptor, wild type; also called FLAG-tagged WT ß1-AR; WT ß1-AR; not shown: FLAG, N-terminal, kept
# Molecular target: T1, GST-PDZ2 of SAP97
# Test: pull-down; solubilized membranes of HEK-293 cells expressing 1.2 pmoles of FLAG ß1-AR per mg protein mixed with increasing concentrations of GST-PDZ2; GST pull-downs probed with anti-ß1-AR antibody, optical densities, estimated EC50, n = 3
# Details: one partner purified
binder,measurement,value
B1,EC50,~1000 nM
